Target: T1, recombinant human IL-17A (human, UniProt Q16552 24-155)
T1 construct: also called Peprotech cat# AF-200-17
T1 sequence: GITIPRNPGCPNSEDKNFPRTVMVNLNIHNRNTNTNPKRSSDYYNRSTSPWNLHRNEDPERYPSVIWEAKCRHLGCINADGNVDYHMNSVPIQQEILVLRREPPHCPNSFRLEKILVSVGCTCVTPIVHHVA
Assay: ELISA

B1: VH domain as identified in SEQ ID NO: 1 (optimised anti-IL-17A single VH domain antibody) (VHH)
VHH: EVQLVESGGGLVQPGGSLRLSCAASGFTFSSYSMYWVRQAPGKGLEWVAEIKQDGSVQYYVSDVKGRFTISRDNAKNSLYLQMNSLRAEDTAVYYCAKGEILPLYFDYWGQGTLVTVSS
notes: Human VH single domain antibody (Humabody VH) without a light chain, from Tg/TKO mice and then optimised
B1: binds.

Reference: patent publication US20190300603A1 (CRESCENDO BIOLOGICS, published 2019)
